Read-outs that look alike come from different tables or passages of the source.
T1: human Activin A (R&D Systems) (human, UniProt P08476 311-426)
T1 sequence (looked up): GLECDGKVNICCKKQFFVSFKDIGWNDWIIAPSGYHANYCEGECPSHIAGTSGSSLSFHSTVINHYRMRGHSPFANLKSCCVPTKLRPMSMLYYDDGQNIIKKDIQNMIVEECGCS

T2: human myostatin (mature, recombinant; R&D Systems) (human, UniProt O14793 267-375)
T2 sequence: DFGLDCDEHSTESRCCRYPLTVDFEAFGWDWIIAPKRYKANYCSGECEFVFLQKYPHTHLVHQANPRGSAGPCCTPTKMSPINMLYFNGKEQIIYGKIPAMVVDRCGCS

T3: human BMP-11 (GDF-11; R&D Systems) (human, UniProt O95390 299-407)
T3 sequence (looked up): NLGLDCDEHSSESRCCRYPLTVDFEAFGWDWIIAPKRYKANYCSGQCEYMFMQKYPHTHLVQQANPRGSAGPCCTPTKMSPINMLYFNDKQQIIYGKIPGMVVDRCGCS


What was measured:
[1] = biological target: T1, human Activin A (R&D Systems); experiment: cell-based or functional assay
[2] = biological target: T2, human myostatin (mature, recombinant; …); experiment: cell-based or functional assay
[3] = biological target: T3, human BMP-11 (GDF-11; R&D Systems); experiment: cell-based or functional assay
[4] = biological target: T2, human myostatin (mature, recombinant; …); experiment: competitive HTRF (1889E01/myostatin/ActRIIb-Fc sandwich)
Description: An HTRF assay was used to measure the binding affinities of anti-myostatin Adnectins to myostatin. […] The Eu-W 1024 labeled Streptavidin is used to bind biotinylated 1889E01. […] In the presence of a competitive Adnectin, the HTRF signal decreases.

[5] = biological target: T2, human myostatin (mature, recombinant; …); experiment: SPR format A, 25C
Description: (§1) Anti-human Fc antibody (Biacore/GE) was immobilized on a Biacore CM5 chip via NHS/EDC coupling according to the manufacturer's instructions. […] A concentration range of anti-myostatin Adnectin was applied across all flow cells in HBSP running buffer. Regeneration of the chip surface between cycles was accomplished with two 30 second pulses of 3M MgCl₂. Kinetic traces of reference-subtracted sensorgrams were fit to a 1:1 binding model using Biaevaluation software.

[6] = biological target: T3, human BMP-11 (GDF-11; R&D Systems); experiment: SPR format A, 25C
Description: as §1

[7] = biological target: T2, human myostatin (mature, recombinant; …); experiment: cell-based or functional assay; remark: listed apart in the source
[8] = biological target: T2, human myostatin (mature, recombinant; …); experiment: competitive HTRF, alanine scan
[9] = biological target: T2, human myostatin (mature, recombinant; …); experiment: cell-based or functional assay; remark: listed apart in the source
[10] = biological target: T1, human Activin A (R&D Systems); experiment: cell-based or functional assay; remark: listed apart in the source
[11] = biological target: T2, human myostatin (mature, recombinant; …); experiment: cell-based or functional assay; remark: listed apart in the source
[12] = biological target: T3, human BMP-11 (GDF-11; R&D Systems); experiment: cell-based or functional assay; remark: listed apart in the source
[13] = biological target: T2, human myostatin (mature, recombinant; …); experiment: cell-based or functional assay; remark: listed apart in the source

Binder	ARE-luciferase IC50 [1] [nM]	ARE-luciferase IC50 [2] [nM]	ARE-luciferase IC50 [3] [nM]	IC50 [4] [nM]	Kd [5] [nM]	Kd [6] [nM]	Myostatin ARE-luc IC50 [7] [nM]	IC50 [8] [nM]	also measured
ATI-1106 [40K 2-branch PEG] (designed binder, 40K 2-branch PEG on the Cys of the GSGC tail) MGVSDVPRDLEVVAATPTSLLISWVSPRGRARYYRITYGETGGNSPVQEFTVPGRGSTATISGLKPGVDYTITVYAVTIYRDGMSHHDPISINYRTGSGCHHHHHH	> 2000	177	1410						
ATI-1376 [40K 2-branch PEG] (designed binder, 40K 2-branch PEG on the Cys of the EGSGC tail, cysteine mutant of 3115_E06) MGVSDVPRDLEVVAATPTSLLISWDAPAGLARYYRITYGETGGNSPVQEFTVVGRGNTATISGLKPGVDYTITVYAVTIFRDGPVTWDPISINYRTEGSGCHHHHHH	> 1000	0.03	0.83	0.32	8.21	13.4			
ATI-1377 [40K 2-branch PEG] (designed binder, 40K 2-branch PEG on the Cys of the EGSGC tail) MGVSDVPRDLEVVAATPTSLLISWDAPKGLARYYRITYGETGGNSPVQEFTVVGRGNTATISGLKPGVDYTITVYAVTIFRDGPVTWDPISINYRTEGSGCHHHHHH	> 1000	0.05	0.78	0.15	8.21	14.2			
ATI-1375 [40K 2-branch PEG] (designed binder, 40K 2-branch PEG on the Cys of the EGSGC tail, cysteine mutant of 3115_D04) MGVSDVPRDLEVVAATPTSLLISWDAPRGLARYYRITYGETGGNSPVQEFTVFGRGTTATISGLKPGVDYTITVYAVTIDRDGTRSFDPISINYRTEGSGCHHHHHH	> 1000	0.17	1.6	0.76	12.6	33.2			
ATI-1359 [40K 2-branch PEG] (designed binder, 40K 2-branch PEG on the Cys of the EGSGC tail) MGVSDVPRDLEVVAATPTSLLISWTLPHAGRAHYYRITYGETGGNSPVQEFTVPGRGVTATISGLKPGVDYTITVYAVTVTTTKVIHYKPISINYRTEGSGC	> 1000	0.26	3.1	0.36	7.9	35.5			
3116_A06 (designed binder, also called WT parent) MGVSDVPRDLEVVAATPTSLLISWSLPHQGKANYYRITYGETGGNSPVQEFTVPGRGVTATISGLKPGVDYTITVYAVTVTDTGYLKYKPISINYRTEIDKPSQHHHHHH				0.15			0.6	0.3	pSmad2 IC50, 4-point [9]: 0.27 nM; ARE-luciferase IC50 [10]: > 1000 nM; ARE-luciferase IC50 [11]: 0.14 nM; ARE-luciferase IC50 [12]: 13 nM
3116_A06 L26A (designed binder) MGVSDVPRDLEVVAATPTSLLISWSAPHQGKANYYRITYGETGGNSPVQEFTVPGRGVTATISGLKPGVDYTITVYAVTVTDTGYLKYKPISINYRTEIDKPSQHHHHHH							16	2.3	ARE-luciferase cell-based assay, IC50 relative to parent sequence [13]: > 10 fold
3116_A06 H28A (designed binder) MGVSDVPRDLEVVAATPTSLLISWSLPAQGKANYYRITYGETGGNSPVQEFTVPGRGVTATISGLKPGVDYTITVYAVTVTDTGYLKYKPISINYRTEIDKPSQHHHHHH							6.2	0.8	ARE-luciferase cell-based assay, IC50 relative to parent sequence [13]: > 10 fold
3116_A06 V58A (designed binder) MGVSDVPRDLEVVAATPTSLLISWSLPHQGKANYYRITYGETGGNSPVQEFTVPGRGATATISGLKPGVDYTITVYAVTVTDTGYLKYKPISINYRTEIDKPSQHHHHHH							3.3	1.6	
3116_A06 L86A (designed binder) MGVSDVPRDLEVVAATPTSLLISWSLPHQGKANYYRITYGETGGNSPVQEFTVPGRGVTATISGLKPGVDYTITVYAVTVTDTGYAKYKPISINYRTEIDKPSQHHHHHH							12	1.4	ARE-luciferase cell-based assay, IC50 relative to parent sequence [13]: > 10 fold
3116_A06 S25A (designed binder) MGVSDVPRDLEVVAATPTSLLISWALPHQGKANYYRITYGETGGNSPVQEFTVPGRGVTATISGLKPGVDYTITVYAVTVTDTGYLKYKPISINYRTEIDKPSQHHHHHH							2.9	0.8	
3116_A06 Q29A (designed binder) MGVSDVPRDLEVVAATPTSLLISWSLPHAGKANYYRITYGETGGNSPVQEFTVPGRGVTATISGLKPGVDYTITVYAVTVTDTGYLKYKPISINYRTEIDKPSQHHHHHH							1.5	0.7	
3116_A06 K89A (designed binder) MGVSDVPRDLEVVAATPTSLLISWSLPHQGKANYYRITYGETGGNSPVQEFTVPGRGVTATISGLKPGVDYTITVYAVTVTDTGYLKYAPISINYRTEIDKPSQHHHHHH							1.6	0.7	
3116_A06 N33A (designed binder) MGVSDVPRDLEVVAATPTSLLISWSLPHQGKAAYYRITYGETGGNSPVQEFTVPGRGVTATISGLKPGVDYTITVYAVTVTDTGYLKYKPISINYRTEIDKPSQHHHHHH							9.8	2	ARE-luciferase cell-based assay, IC50 relative to parent sequence [13]: > 10 fold
3116_A06 P27A (designed binder) MGVSDVPRDLEVVAATPTSLLISWSLAHQGKANYYRITYGETGGNSPVQEFTVPGRGVTATISGLKPGVDYTITVYAVTVTDTGYLKYKPISINYRTEIDKPSQHHHHHH							10	1	ARE-luciferase cell-based assay, IC50 relative to parent sequence [13]: > 10 fold
3116_A06 T83A (designed binder) MGVSDVPRDLEVVAATPTSLLISWSLPHQGKANYYRITYGETGGNSPVQEFTVPGRGVTATISGLKPGVDYTITVYAVTVTDAGYLKYKPISINYRTEIDKPSQHHHHHH							1.8	1.3	
3116_A06 Y85A (designed binder) MGVSDVPRDLEVVAATPTSLLISWSLPHQGKANYYRITYGETGGNSPVQEFTVPGRGVTATISGLKPGVDYTITVYAVTVTDTGALKYKPISINYRTEIDKPSQHHHHHH							5.5	2	ARE-luciferase cell-based assay, IC50 relative to parent sequence [13]: > 10 fold
ATI-1266 [40K 2-branch PEG] (designed binder, 40K 2-branch PEG on the Cys of the EGSGC tail, cysteine mutant of 2525_D02) MGVSDVPRDLEVVAATPTSLLISWTLPHAGRAHYYRITYGETGGNSPVQEFTVPGRGVTATISGLKPGVDYTITVYAVTVTTTSVILYKPISINYRTEGSGCHHHHHH	2000	0.12	0.89	0.21	0.76	2.57			
ATI-1341 [20K Bis-PEG] (designed binder, two Adnectins joined through their tail Cys to the two ends of a 20 kDa bis-PEG, bivalent PEGylated form of the 2987_H07 cysteine mutant) MGVSDVPRDLEVVAATPTSLLISWTLPHAGRAHYYRITYGETGGNSPVQEFTVPGRGVTATISGLKPGVDYTITVYAVTVTTTKVIHYKPISINYRTEGSGCHHHHHH	14	0.03	0.14	0.13					
ATI-1379 [40K 2-branch PEG] (designed binder, 40K 2-branch PEG on the Cys of the EGSGC tail) MGVSDVPRDLEVVAATPTSLLISWSLPHQGKANYYRITYGETGGNSPVQEFTVPGRGVTATISGLKPGVDYTITVYAVTVTDTGYLKYKPISINYRTEGSGCHHHHHH	> 1000	0.1	4.3	0.28	9.5	21.6			
ATI-1378 [40K 2-branch PEG] (designed binder, 40K 2-branch PEG on the Cys of the EGSGC tail, cysteine mutant of 3146_A08) MGVSDVPRDLEVVAATPTSLLISWSLPNPGNAHYYRITYGETGGNSPVQEFTVPGRGVTATISGLKPGVDYTITVYAVTVTDTGFITYKPISINYRTEGSGCHHHHHH	> 1000	0.29	5.4	1.29	14.4	59.6			

Reference: patent publication US20170088602A1 (Bristol-Myers Squibb, published 2017)
